# Source: IntAct's records for PubMed 14699056
# B1: Protein EMP47 (Saccharomyces cerevisiae), P43555 (parent)
# chain: MMMLITMKSTVLLSVFTVLATWAGLLEAHPLGDTSDASKLSSDYSLPDLINARKVPNNWQTGEQASLEEGRIVLTSKQNSKGSLWLKQGFDLKDSFTMEWTFRSVGYSGQTDGGISFWFVQDSNVPRDKQLYNGPVNYDGLQLLVDNNGPLGPTLRGQLNDGQKPVDKTKIYDQSFASCLMGYQDSSVPSTIRVTYDLEDDNLLKVQVDNKVCFQTRKVRFPSGSYRIGVTAQNGAVNNNAESFEIFKMQFFNGVIEDSLIPNVNAMGQPKLITKYIDQQTGKEKLIEKTAFDADKDKITNYELYKKLDRVEGKILANDINALETKLNDVIKVQQELLSFMTTITKQLSSKPPANNEKGTSTDDAIAEDKENFKDFLSINQKLEKVLVEQEKYREATKRHGQDGPQVDEIARKLMIWLLPLIFIMLVMAYYTFRIRQEIIKTKLL
# partner: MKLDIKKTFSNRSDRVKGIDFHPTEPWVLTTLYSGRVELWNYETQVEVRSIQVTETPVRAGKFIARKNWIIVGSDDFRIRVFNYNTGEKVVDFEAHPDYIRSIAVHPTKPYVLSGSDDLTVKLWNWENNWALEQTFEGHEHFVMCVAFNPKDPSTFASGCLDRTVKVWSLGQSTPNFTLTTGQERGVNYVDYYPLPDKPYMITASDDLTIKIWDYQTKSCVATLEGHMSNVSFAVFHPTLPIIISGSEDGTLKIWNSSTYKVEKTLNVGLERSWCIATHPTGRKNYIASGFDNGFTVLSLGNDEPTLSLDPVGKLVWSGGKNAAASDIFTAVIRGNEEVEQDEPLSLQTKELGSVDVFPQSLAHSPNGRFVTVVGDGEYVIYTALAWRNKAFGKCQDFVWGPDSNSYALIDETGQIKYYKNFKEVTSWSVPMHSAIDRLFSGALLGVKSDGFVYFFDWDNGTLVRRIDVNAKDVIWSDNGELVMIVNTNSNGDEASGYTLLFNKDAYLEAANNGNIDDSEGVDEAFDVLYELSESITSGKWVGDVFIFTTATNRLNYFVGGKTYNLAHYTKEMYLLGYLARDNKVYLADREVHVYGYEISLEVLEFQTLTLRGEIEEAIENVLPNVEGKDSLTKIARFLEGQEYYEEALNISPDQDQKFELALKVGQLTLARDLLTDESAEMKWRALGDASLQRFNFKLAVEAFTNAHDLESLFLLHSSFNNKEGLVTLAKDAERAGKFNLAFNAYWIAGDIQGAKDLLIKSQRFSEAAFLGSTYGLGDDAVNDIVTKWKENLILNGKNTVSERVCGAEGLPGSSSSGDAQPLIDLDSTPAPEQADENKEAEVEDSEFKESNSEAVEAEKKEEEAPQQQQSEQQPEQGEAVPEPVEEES
# B2: Dolichyl-diphosphooligosaccharide--protein glycosyltransferase subunit WBP1 (Saccharomyces cerevisiae), P33767 (parent)
# chain: MRTDWNFFFCILLQAIFVVGTQTSRTLVLYDQSTEPLEEYSVYLKDLEQRNYKLEYLDINSTSTTVDLYDKEQRLFDNIIVFPTKGGKNLARQIPVKQLIKFFENEGNILCMSSPGAVPNTIRLFLNELGIYPSPKGHVIRDYFSPSSEELVVSSNHLLNKYVYNARKSEDFVFGESSAALLENREQIVPILNAPRTSFTESKGKCNSWTSGSQGFLVVGFQNLNNARLVWIGSSDFLKNKNQDSNQEFAKELLKWTFNEKSVIKSVHAVHSHADGTSYDEEPYKIKDKVIYSVGFSEWNGEEWLPHIADDIQFELRQVDPYYRLTLSPSGNDSETQYYTTGEFILPDRHGVFTFLTDYRKIGLSFTTDKDVKAIRHLANDEYPRSWEISNSWVYISAICGVIVAWIFFVVSFVTTSSVGKKLETFKKTN
# partner: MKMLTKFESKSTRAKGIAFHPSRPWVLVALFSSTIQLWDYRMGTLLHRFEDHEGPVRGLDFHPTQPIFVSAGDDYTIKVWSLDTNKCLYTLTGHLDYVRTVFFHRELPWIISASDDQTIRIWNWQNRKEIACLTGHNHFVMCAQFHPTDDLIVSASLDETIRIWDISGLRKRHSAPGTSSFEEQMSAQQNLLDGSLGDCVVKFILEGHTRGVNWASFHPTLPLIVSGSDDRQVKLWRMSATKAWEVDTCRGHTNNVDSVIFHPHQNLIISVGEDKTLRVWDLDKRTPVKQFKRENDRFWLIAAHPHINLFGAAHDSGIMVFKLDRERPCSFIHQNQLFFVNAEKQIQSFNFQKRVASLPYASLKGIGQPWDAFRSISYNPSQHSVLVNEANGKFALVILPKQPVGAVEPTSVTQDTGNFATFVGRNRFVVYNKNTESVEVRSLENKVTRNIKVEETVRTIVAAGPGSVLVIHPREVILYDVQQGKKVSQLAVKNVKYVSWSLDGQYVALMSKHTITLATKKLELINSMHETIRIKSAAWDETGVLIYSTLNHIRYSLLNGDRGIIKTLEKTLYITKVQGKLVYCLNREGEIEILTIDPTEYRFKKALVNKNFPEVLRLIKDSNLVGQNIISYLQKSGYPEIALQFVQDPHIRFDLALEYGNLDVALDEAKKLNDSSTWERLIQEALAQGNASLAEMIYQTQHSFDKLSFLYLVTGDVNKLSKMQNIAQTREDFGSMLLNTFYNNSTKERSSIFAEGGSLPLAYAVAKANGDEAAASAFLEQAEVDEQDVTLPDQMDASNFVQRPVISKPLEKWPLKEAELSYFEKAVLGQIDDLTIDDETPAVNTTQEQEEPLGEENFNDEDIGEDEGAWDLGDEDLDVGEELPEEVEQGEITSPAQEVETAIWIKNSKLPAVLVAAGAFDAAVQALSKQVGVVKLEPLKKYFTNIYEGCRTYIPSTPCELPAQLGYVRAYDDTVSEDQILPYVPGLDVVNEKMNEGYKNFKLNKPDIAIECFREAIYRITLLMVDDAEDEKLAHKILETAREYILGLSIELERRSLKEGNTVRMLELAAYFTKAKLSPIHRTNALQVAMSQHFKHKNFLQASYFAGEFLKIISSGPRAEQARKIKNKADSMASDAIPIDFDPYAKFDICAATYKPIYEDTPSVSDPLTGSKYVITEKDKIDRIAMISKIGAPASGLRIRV
# Variants of: B1
# Settings: with copb2_yeast SEC27, P41811
row,Variant,effect of a mutation on the interaction
1,K441S;K443S,decreasing interaction

# Variants of: B2
# Settings: with copa_yeast COP1, P53622
row,Variant,effect of a mutation on the interaction
1,K427A;K428A,decreasing interaction
